These binders were tested against ACVR2B, Q13705 (assay: Kd (SPR)).
Sequence of ACVR2B, Q13705 (Q13705 whole entry, looked up): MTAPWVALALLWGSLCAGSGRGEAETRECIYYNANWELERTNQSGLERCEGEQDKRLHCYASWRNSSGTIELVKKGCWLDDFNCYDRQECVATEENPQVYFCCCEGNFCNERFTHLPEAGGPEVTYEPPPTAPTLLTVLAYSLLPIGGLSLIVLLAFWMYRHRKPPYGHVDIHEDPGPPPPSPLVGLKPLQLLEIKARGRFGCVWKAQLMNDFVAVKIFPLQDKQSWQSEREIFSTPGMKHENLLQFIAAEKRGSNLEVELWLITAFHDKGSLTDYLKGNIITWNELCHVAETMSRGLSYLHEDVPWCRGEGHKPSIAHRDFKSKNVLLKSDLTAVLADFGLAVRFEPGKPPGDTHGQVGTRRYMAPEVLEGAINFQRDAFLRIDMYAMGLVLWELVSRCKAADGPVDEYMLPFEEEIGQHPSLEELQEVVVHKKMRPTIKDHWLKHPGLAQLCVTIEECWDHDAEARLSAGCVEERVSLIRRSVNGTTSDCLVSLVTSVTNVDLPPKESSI

Row | Binder | Kd
1 | unnamed (protein) chain 1: QVQLVQSGAEVKKPGASVKVSCKASGYRFTSSGINWVRQAPGQGLEWMGTINPVTGNTSYAQKFQGRVTMTRDTSISTAYMELSRLRSDDTAVYYCARGGYFDYWGQGTLVTVSS chain 2: QSALTQPASVSGSPGQSITISCTGTSSDVGSYNYVNWYQQHPGKAPKLMIYGVSKRPSGVSNRFSGSKSGNTASLTISGLQAEDEADYYCGTFAGGSYYGVFGGGTKLTVL | 292 nM
2 | unnamed (protein) chain 1: QVQLVQSGAEVKKPGASVKVSCKASGYTFTSSYINWVRQAPGQGLEWMGTINPVSGSTSYAQKFQGRVTMTRDTSISTAYMELSRLRSDDTAVYYCARGGDMDYWGQGTLVTVSS chain 2: QSALTQPASVSGSPGQSITISCTGTSSDVGSYNYVNWYQQHPGKAPKLMIYGVSKRPSGVSNRFSGSKSGNTASLTISGLQAEDEADYYCGTFAGGSYYGVFGGGTKLTVL | 162 nM
3 | unnamed (protein) chain 1: QVQLVQSGAEVKKPGASVKVSCKASGYTFTSSYINWVRQAPGQGLEWMGTINPVSGSTSYAQKFQGRVTMTRDTSISTAYMELSRLRSDDTAVYYCARGGEFDYWGQGTLVTVSS chain 2: QSALTQPASVSGSPGQSITISCTGTSSDVGSYNYVNWYQQHPGKAPKLMIYGVSKRPSGVSNRFSGSKSGNTASLTISGLQAEDEADYYCGTFAGGSYYGVFGGGTKLTVL | 704 nM
4 | unnamed (protein) chain 1: QVQLVQSGAEVKKPGASVKVSCKASGYTFTSTGINWVRQAPGQGLEWMGTINPVTGGTSYAQKFQGRVTMTRDTSISTAYMELSRLRSDDTAVYYCARGGYFDYWGQGTLVTVSS chain 2: QSALTQPASVSGSPGQSITISCTGTSSDVGSYNYVNWYQQHPGKAPKLMIYGVSKRPSGVSNRFSGSKSGNTASLTISGLQAEDEADYYCGTFAGGSYYGVFGGGTKLTVL | 234 nM
5 | unnamed (protein) chain 1: QVQLVQSGAEVKKPGASVKVSCKASGYTFTSSYINWVRQAPGQGLEWMGTINPVSGSTSYAQKFQGRVTMTRDTSISTAYMELSRLRSDDTAVYYCARGGYVDYWGQGTLVTVSS chain 2: QSALTQPASVSGSPGQSITISCTGTSSDVGSYNYVNWYQQHPGKAPKLMIYGVSKRPSGVSNRFSGSKSGNTASLTISGLQAEDEADYYCGTFAGGSYYGVFGGGTKLTVL | 153 nM
6 | unnamed (protein) chain 1: QVQLVQSGAEVKKPGASVKVSCKASGYTFTSSYINWVRQAPGQGLEWMGTINPVSGSTSYAQKFQGRVTMTRDTSISTAYMELSRLRSDDTAVYYCARQLTLDVWGQGTLVTVSS chain 2: QSALTQPASVSGSPGQSITISCTGTSSDVGSYNYVNWYQQHPGKAPKLMIYGVSKRPSGVSNRFSGSKSGNTASLTISGLQAEDEADYYCGTFAGGSYYGVFGGGTKLTVL | 210 nM
7 | unnamed (protein) chain 1: QVQLVQSGAEVKKPGASVKVSCKASGYTFTSSHINWVRQAPGQGLEWMGTINPVTGNTSYAQKFQGRVTMTRDTSISTAYMELSRLRSDDTAVYYCARGGYFDYWGQGTLVTVSS chain 2: QSALTQPASVSGSPGQSITISCTGTSSDVGSYNYVNWYQQHPGKAPKLMIYGVSKRPSGVSNRFSGSKSGNTASLTISGLQAEDEADYYCGTFAGGSYYGVFGGGTKLTVL | 162 nM
8 | unnamed (protein) chain 1: QVQLVQSGAEVKKPGASVKVSCKASGYTFTSSYINWVRQAPGQGLEWMGTINPVSGSTSYAQKFQGRVTMTRDTSISTAYMELSRLRSDDTAVYYCARGGDFDYWGQGTLVTVSS chain 2: QSALTQPASVSGSPGQSITISCTGTSSDVGSYNYVNWYQQHPGKAPKLMIYGVSKRPSGVSNRFSGSKSGNTASLTISGLQAEDEADYYCGTFAGGSYYGVFGGGTKLTVL | 123 nM
9 | unnamed (protein) chain 1: QVQLVQSGAEVKKPGASVKVSCKASGYTFTSSYINWVRQAPGQGLEWMGTINPVSGSTSYAQKFQGRVTMTRDTSISTAYMELSRLRSDDTAVYYCARNGYADYWGQGTLVTVSS chain 2: QSALTQPASVSGSPGQSITISCTGTSSDVGSYNYVNWYQQHPGKAPKLMIYGVSKRPSGVSNRFSGSKSGNTASLTISGLQAEDEADYYCGTFAGGSYYGVFGGGTKLTVL | 337 nM
10 | unnamed (protein) chain 1: QVQLVQSGAEVKKPGASVKVSCKASGYTFTSSYINWVRQAPGQGLEWMGTINPVSGSTSYAQKFQGRVTMTRDTSISTAYMELSRLRSDDTAVYYCARLAIGDSYWGQGTLVTVSS chain 2: QSALTQPASVSGSPGQSITISCTGTSSDVGSYNYVNWYQQHPGKAPKLMIYGVSKRPSGVSNRFSGSKSGNTASLTISGLQAEDEADYYCGTFAGGSYYGVFGGGTKLTVL | 111 nM

Binders with a lower Kd, results first:

Row | Kd | Binder
11 | 106 nM | unnamed (protein) chain 1: QVQLVQSGAEVKKPGASVKVSCKASGYTFTSSYINWVRQAPGQGLEWMGTINPVSGSTSYAQKFQGRVTMTRDTSISTAYMELSRLRSDDTAVYYCARSWGYFDVWGQGTLVTVSS chain 2: QSALTQPASVSGSPGQSITISCTGTSSDVGSYNYVNWYQQHPGKAPKLMIYGVSKRPSGVSNRFSGSKSGNTASLTISGLQAEDEADYYCGTFAGGSYYGVFGGGTKLTVL
12 | 42.6 nM | unnamed (protein) chain 1: QVQLVQSGAEVKKPGASVKVSCKASGYTFTSSYINWVRQAPGQGLEWMGTINPVSGSTSYAQKFQGRVTMTRDTSISTAYMELSRLRSDDTAVYYCARGGYDDYWGQGTLVTVSS chain 2: QSALTQPASVSGSPGQSITISCTGTSSDVGSYNYVNWYQQHPGKAPKLMIYGVSKRPSGVSNRFSGSKSGNTASLTISGLQAEDEADYYCGTFAGGSYYGVFGGGTKLTVL
13 | 26.2 nM | unnamed (protein) chain 1: QVQLVQSGAEVKKPGASVKVSCKASGYTFTSSYINWVRQAPGQGLEWMGTINPVSGSTSYAQKFQGRVTMTRDTSISTAYMELSRLRSDDTAVYYCARGGYFDVWGQGTLVTVSS chain 2: QSALTQPASVSGSPGQSITISCTGTSSDVGSYNYVNWYQQHPGKAPKLMIYGVSKRPSGVSNRFSGSKSGNTASLTISGLQAEDEADYYCGTFAGGSYYGVFGGGTKLTVL
14 | 9.19 nM | unnamed (protein) chain 1: QVQLVQSGAEVKKPGASVKVSCKASGYTFTSSYINWVRQAPGQGLEWMGTINPVSGSTSYAQKFQGRVTMTRDTSISTAYMELSRLRSDDTAVYYCARSGYFDYWGQGTLVTVSS chain 2: QSALTQPASVSGSPGQSITISCTGTSSDVGSYNYVNWYQQHPGKAPKLMIYGVSKRPSGVSNRFSGSKSGNTASLTISGLQAEDEADYYCGTFAGGSYYGVFGGGTKLTVL
15 | 6.37 nM | unnamed (protein) chain 1: QVQLVQSGAEVKKPGASVKVSCKASGYTFTSSYINWVRQAPGQGLEWMGTINPVSGSTSYAQKFQGRVTMTRDTSISTAYMELSRLRSDDTAVYYCARSGYMDYWGQGTLVTVSS chain 2: QSALTQPASVSGSPGQSITISCTGTSSDVGSYNYVNWYQQHPGKAPKLMIYGVSKRPSGVSNRFSGSKSGNTASLTISGLQAEDEADYYCGTFAGGSYYGVFGGGTKLTVL
16 | 76.7 nM | unnamed (protein) chain 1: QVQLVQSGAEVKKPGASVKVSCKASGYTFTSSYINWVRQAPGQGLEWMGTINPVSGSTSYAQKFQGRVTMTRDTSISTAYMELSRLRSDDTAVYYCARGGYADYWGQGTLVTVSS chain 2: QSALTQPASVSGSPGQSITISCTGTSSDVGSYNYVNWYQQHPGKAPKLMIYGVSKRPSGVSNRFSGSKSGNTASLTISGLQAEDEADYYCGTFAGGSYYGVFGGGTKLTVL
17 | 41.9 nM | unnamed (protein) chain 1: QVQLVQSGAEVKKPGASVKVSCKASGYTFTSSYINWVRQAPGQGLEWMGTINPVSGSTSYAQKFQGRVTMTRDTSISTAYMELSRLRSDDTAVYYCARSGYADYWGQGTLVTVSS chain 2: QSALTQPASVSGSPGQSITISCTGTSSDVGSYNYVNWYQQHPGKAPKLMIYGVSKRPSGVSNRFSGSKSGNTASLTISGLQAEDEADYYCGTFAGGSYYGVFGGGTKLTVL
18 | 101 nM | unnamed (protein) chain 1: QVQLVQSGAEVKKPGASVKVSCKASGYTFTSSYINWVRQAPGQGLEWMGTINPVSGSTSYAQKFQGRVTMTRDTSISTAYMELSRLRSDDTAVYYCARGGYTDYWGQGTLVTVSS chain 2: QSALTQPASVSGSPGQSITISCTGTSSDVGSYNYVNWYQQHPGKAPKLMIYGVSKRPSGVSNRFSGSKSGNTASLTISGLQAEDEADYYCGTFAGGSYYGVFGGGTKLTVL
19 | 101 nM | unnamed (protein) chain 1: QVQLVQSGAEVKKPGASVKVSCKASGYTFTSSYINWVRQAPGQGLEWMGTINPVSGSTSYAQKFQGRVTMTRDTSISTAYMELSRLRSDDTAVYYCARGGYNDYWGQGTLVTVSS chain 2: QSALTQPASVSGSPGQSITISCTGTSSDVGSYNYVNWYQQHPGKAPKLMIYGVSKRPSGVSNRFSGSKSGNTASLTISGLQAEDEADYYCGTFAGGSYYGVFGGGTKLTVL

Source: the FLAb antibody collection (doi:10.1101/2023.12.08.570889)
